Among the data in the supplement of paper PMC11502859 are median enrichment values, retold here.

Several values for one entry are separate records, joined by “and”; a condition that tells them apart may be missing. Identical values can stand only once.
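Also: lentiviral eGFP-IRES-mCherry reporter pool sorted by FACS 96 h post-transduction, gated on mCherry-high cells, Illumina read counts normalized per million, median across four biological replicates.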

For this data set, the system named is HEK293T. Description: median enrichment of reporter reads in eGFP-reduced (low/intermediate) vs eGFP-high sorted cells (eGFP-extension fusion abundance) (ratio); higher = stronger loss of eGFP-fusion protein abundance (more destabilising extension).
As to “LGGRCRKHLEQPQSHGAEGAGAAPVIGRGIPSVCSASCLLNKGLFLTHK [CUL9]”, the median enrichment worked out at 14.9.
The value for “CAWSAHRLSSAFALLRCYRTLAPDVCSFTGCLICLLHPTGPPTSSDVFLIMSAMCPILLHALPPFPTTAEWPGTCLKCLFPIS [F11R]” was 6.63; that for CARAALEAPARGICPYPSWKDSWMW [HCRTR1] was 10.8.
The value for QQQYYRGLNNTTKSIWIA [NCAM2] was 25; that for YIIHCIFYFYHILHIQQNLYVVIGII [ELMOD2] was 7.8.
For “YSPTPTAAYLHFQFLRGTEASSQHAANLWSLILTPSPTPVVGLYYV [KIF5A]” the value was 6.66.
Take RGSRRKQDTRWQA [PHGR1]: the median enrichment was found to be 3.92.
The value for SKERHTSEQRSYMCTK [DEFB114] was 0.227.
For RRRRRRRRR [Arg09] the value was 1.11; for “WPVPGALLRPTTASWVGRTGSGGKSQRDQDGGCGAAFPVASIARRVFVCLSVFLTSFFYIFISRQS [NR6A1]”, 9.66; for QWSWLRVGEGTWA [RTP2], 2.67.
For YRTM [IAPP], the median enrichment came to 0.785.
The value for “WPLDVGKPCGPPLITSSPRMTAEPQASGAGLMYPNLGQHDCRSIQSLPAPSMKGPPKTVLGTQCVAGSPPS [MINDY4]” was 0.736; that for “SKCVLRASLFFTAAATFPHCLRCREGQVPASTGISDKPRAQPTRGSSLHAHTGYGDGGLQVSSARGLSLWHPHSCPAREALVV [SSNA1]” was 5.95.
For SGLPLPSLLEIVNPAVCAGLIVSVL [FBXO25] the value was 6.93; for GISVSSLISGIFVDKIRRNSCNF [KATNAL1], 2.39.
For “LLCKEYGIAKISLVANISGKVHIFILNSHSFEL [MYNN]” the value was 4.26.
Consider LKPGC [KRTAP1-4], for which the median enrichment stood at 0.613.
Consider LKPPSAGDPDKMAP [KRTAP1-1], for which the median enrichment was found to be 0.285.
Regarding YILLADHYCGLKDDHLV [WFDC9], the median enrichment stood at 7.3.
For YPQPPPHHPLPKSSACSPGERTAGLSY [COTL1] the value was 11.5.
For “RRAGGGWWPRRQHTTRLHTCMLSPRGNGLYIAHFTLFRRHFIPALVLLEGLSRQSSSCSASVCDSPPSTPMALSLGDSSSPRK [PRKAB1]” the value was 5.36; for RASVGG [MDFI], 9.54.
The value for CFSVNLSLLVERSGACPSSQTSDL [LRRC46] was 5.72; that for YPAHLASLFSF [ECD] was 2.85; that for RIFTHIYLVSIG [FAM129C] was 28.5.
Turning to LLLEIRLLQLDV [CDC27], the median enrichment worked out at 10.6.
For WRPPHFRFGFRKTFSEKKLFF [TFDP1] the value was 5.19; for CEGQTPEEPLQ [CXCL12], 0.136; for HHHHHHH [His07], 0.367.
For YALGKKDCNQRKSIGVEEIKLTLFWLFF [GLI3] the value was 23.4.
For REAMPWSWD [SLN] the value was 0.623; for WELLFLGEGEEGKGPGSRGTRG [EPHB1], 5.5.
For the substance QLICYVNLSFAFLFD [DGKB], the median enrichment amounted to 13.9.
For YEAVMRMVL [SETDB1] the value was 4.84 and 3.68; for LWDNHKVWKLGLK [BCO2], 4.23.
The value for “LVSLPLVSAWQPPPPTYHPSPITQVNVTNLPCLHINLYIFGCSPYLMAVIIYRYVYPCYLVVSFSRGGTVFYSSLCPLFLSSV [PGLYRP4]” was 2.37.
The value for EQPGTAFSFPAEYC [RBM34] was 0.275; that for EKLVLCSG [ZDBF2] was 5.06.
Take “WAVSLTCPGTPAPGLGRELTRTGCSQKAGPSLSPKPLLDLWRSCRLDREAVPLSSPSPSRASPWSFRSSFWGLFQVRRMEEGG [FOXN4]”: the median enrichment was 4.84.
The value for YNIYSYDKDT [HCRTR2] was 5.01; that for “GRRADSLAAPVLSPAILPYQGHWPLPSLCEGYFL [CYP2C18]” was 17; that for YSCVVSLLEIELA [DGKB] was 7.27.
The value for YQAQLQKDLTCAHKILL [LCN6] was 7.65; that for YAATDLGHLSQLAHPPPLPNFRYLSILLK [FBXL6] was 5.29.
For KCDKVQPSDLIIHKIIYT [ZNF679] the value was 15.1; for “RAPVWMLLPRLQTTGSFPCPNPRRSFLEGSWALGTCVSCAYHRPRPPWISWIGVGE [TXNRD1]”, 10.1.
“YILNLVCRPSRGIKRLALVVKNKADSQTRSDFCPCSSFDVLSVALFLIASSTCKMLFTFCLG [DAB2]”: the median enrichment was determined as 7.19.
Regarding “GEVLPGPRRGDREHHCHPGEPGAGAPGACRLRQGRCGRDDAALGCGVGSPKHPRQQPRPWPHQWHRGAPATGWPSGQPEHQGH [DECR2]”, the median enrichment is 0.598.
For “HFWGVTDFVHGFKVYFYGLVIAEFLFWGEGKGASPLLLALRPRRLLCAANCIYCDALVRAPLPTSPSQLWPQPLSLCCVEWTP [TSPYL2]” the value was 8.4.
For “WDSSPSPSDQGPSSSKPEAELPAHPCRPPKPTPPHPV [ARL8A]” the value was 1.02; for LLQGSKLQR [OR7A5], 10.4.
The value for YVFLKIKLKKEIFFLIKL [GALNT3] was 6.22.
Turning to “LILYPSAMATRRTNNCPPLEVRLIEALDPNKIRIRICNGPGAVPHACHPSTLGG [RBPMS]”, the median enrichment was 3.14.
The value for SGTRKEID [PCDHB16] was 0.57; that for ERSPNLQVQGRYIHI [MARK1] was 1.47; that for WEPTACRCRRMRGCRDARRRPRSQPTTPPPA [FOXL2] was 17.5.
The value for ACKNWFSSLSHFVIHL [Degron CL1] was 8.24; that for “GRGMASGREGGIVGGQGSGFGSRWEQGLVKLFVSGPQ [PAQR7]” was 12.5; that for SNLSPRRPEVNRHLGRGRACV [NAXD] was 1.3.
For YISHQKLRQEKQK [RASSF8] the value was 3.3; for YEAPS [OR1L8], 1.07; for RIFCLVASQLGVL [GXYLT2], 6.32.
Take SFFSLSRFLAALVLL [LONRF2]: the median enrichment is 8.16.
QHLQEEEEKEGTPDWI [GPR158]: the median enrichment turned out to be 1.29.
For CGPGGSGRGWPHPHDHCPGGGGLLLLSF [BIK] the value was 10.6; for LGTQASPSLTAEVRNKRWFRVPA [PSMC3], 8.36; for WTAERTMHPSAWWSLRDRSDDPRRLWRTI [LILRA2], 6.78.
The value for WLSF [KRT28] was 6.06.
The value for CRFLLKLTLFHLSF [VHL] was 24.3 and 30.2.
As for QACPAVNLHLEP [SEC16A], the median enrichment was found to be 0.624.
The value for LPDFGAAEAT [ELP6] was 0.429.
For YMQRPRRAALTTRFIF [EWSR1] the value was 6.81; for “GGCRRRPSWCRQAGHRDPGPAQETAFFSRYNRRQKKRVPPLPNRSFWQGVPNAKTQRCGWHLLPHSFKIVKKC [FOXF1]”, 9.48; for “IYPSPGSPGHSVLSKTRMWYQLWKRKVSCQQYLLPSRQPSQVRHLLRSHREPGVCTSWKSCHQPGHSSHRIDQRACFLIQENE [SPSB4]”, 7.01.
The value for LSDHPAFPN [TMBIM6] was 0.54; that for “LWLPRPGRLLDILFWLNIVLWMVPQSGARILPRRKATNGSGNYIKPETLQQGENCAPGCLAQASLEPSKHFCPS [MAB21L3]” was 6.66.
For the substance LTYFNYCIFISSFPNTNKIIL [DYNC2LI1], the median enrichment stood at 8.97.
The value for “LSVHWGPSVVPFVENLLHKALLNCLELGTSIPMETSPVWGTWRICQRLSDMGPWQFYTGKWSAPLGYTRLSVFSPSILFPLHM [NYNRIN]” was 3.7; that for SYKQRTSSILRKEML [MEOX2] was 5.43; that for “RPWPRAQACLGWALPLTTQGGPGPLGFLPWGQQPPAGLVGSGFLDFLMKRGYL [KCNH4]” was 4.41.
The value for “WFIFKGLCVTLTFPVVTCDCFVFVEEYCFYFEKRVFFLSMGLQGWCTTGPSMYSCIDFFT [CD109]” was 0.738; that for “LTSSLQRSESGGGSACREGLDLHIFSGVVRASPYLLLSPCEEDPDLASFPRRGWGVPRVPVLEGPPSPSLITVLFSAPPSAAR [ZNF646]” was 4.64.
With SGASQRSAHADNKVALSLE [FIBP], the median enrichment was 0.209.
The value for LNQS [CFH] was 0.385; that for “QSQPQLMPSQSQPPVTPSQSQPRVTPSQSQPHVTPYRSKSGKQKQSVPIPKTVSRKGTLKK [ADAM29]” was 0.14; that for YVRTVG [UFD1] was 3.02.
KCSIYIYN [REC114]: the median enrichment worked out at 18.5.
For YPVTL [SMCO1] the value was 0.416; for SPRSWILQCINKRSQAGFISETIN [SGCD], 39.2; for NRRRRWRERQR [Degron FEM1C], 21.1.
The value for “WPLGRPPAQLPCPPPPSSSGFSVLGRLSWGRRWEGRDQLSSLAGKRGCGSQGGLQGTGMSGGHQAQRKRKQREFTGPPEKSQS [CRHR2]” was 1.19.
For “CDARQFLDLGGLKRPPSCLLSFSVSSFLLVFFILFSFHQPSCILALQRDRDRSSAQGFSLPLFIMGGGYHPPSQSCEESGTSF [NOTCH3]” the value was 9.5; for “ELPGLGGLSGIAMLVAREKKSTANKTTQTKPSTA [FOXA1]”, 1.47.
As to LSLTASLK [TEX35], the median enrichment stood at 1.49.
For “RAPTLQPQTLCTPRCDAGRGPPPGRTDCRSWEPRHAQASAEGAAGGSARLDPWHLIKKFSLMSMVVGQPSSLSQQAHAASVTS [ZFPM1]” the value was 2.21.
The value for LVLRLRATPLPSACSFPGIFVSF [EPS15L1] was 18; that for “STFLHTQPLLYSTSCPGASHTPELICIILTIFSLLSPFFLFERPSLISKM [TRIM5]” was 16.6; that for LNWD [PIK3C3] was 0.342.
